The source of these data is paper PMC8117670 (Science (New York, N.Y.), 2021).

Test in all cases: cryo-EM structure
The target of one experiment is T1, Med23 (human, UniProt Q9ULK4 1-1368).
T1 sequence: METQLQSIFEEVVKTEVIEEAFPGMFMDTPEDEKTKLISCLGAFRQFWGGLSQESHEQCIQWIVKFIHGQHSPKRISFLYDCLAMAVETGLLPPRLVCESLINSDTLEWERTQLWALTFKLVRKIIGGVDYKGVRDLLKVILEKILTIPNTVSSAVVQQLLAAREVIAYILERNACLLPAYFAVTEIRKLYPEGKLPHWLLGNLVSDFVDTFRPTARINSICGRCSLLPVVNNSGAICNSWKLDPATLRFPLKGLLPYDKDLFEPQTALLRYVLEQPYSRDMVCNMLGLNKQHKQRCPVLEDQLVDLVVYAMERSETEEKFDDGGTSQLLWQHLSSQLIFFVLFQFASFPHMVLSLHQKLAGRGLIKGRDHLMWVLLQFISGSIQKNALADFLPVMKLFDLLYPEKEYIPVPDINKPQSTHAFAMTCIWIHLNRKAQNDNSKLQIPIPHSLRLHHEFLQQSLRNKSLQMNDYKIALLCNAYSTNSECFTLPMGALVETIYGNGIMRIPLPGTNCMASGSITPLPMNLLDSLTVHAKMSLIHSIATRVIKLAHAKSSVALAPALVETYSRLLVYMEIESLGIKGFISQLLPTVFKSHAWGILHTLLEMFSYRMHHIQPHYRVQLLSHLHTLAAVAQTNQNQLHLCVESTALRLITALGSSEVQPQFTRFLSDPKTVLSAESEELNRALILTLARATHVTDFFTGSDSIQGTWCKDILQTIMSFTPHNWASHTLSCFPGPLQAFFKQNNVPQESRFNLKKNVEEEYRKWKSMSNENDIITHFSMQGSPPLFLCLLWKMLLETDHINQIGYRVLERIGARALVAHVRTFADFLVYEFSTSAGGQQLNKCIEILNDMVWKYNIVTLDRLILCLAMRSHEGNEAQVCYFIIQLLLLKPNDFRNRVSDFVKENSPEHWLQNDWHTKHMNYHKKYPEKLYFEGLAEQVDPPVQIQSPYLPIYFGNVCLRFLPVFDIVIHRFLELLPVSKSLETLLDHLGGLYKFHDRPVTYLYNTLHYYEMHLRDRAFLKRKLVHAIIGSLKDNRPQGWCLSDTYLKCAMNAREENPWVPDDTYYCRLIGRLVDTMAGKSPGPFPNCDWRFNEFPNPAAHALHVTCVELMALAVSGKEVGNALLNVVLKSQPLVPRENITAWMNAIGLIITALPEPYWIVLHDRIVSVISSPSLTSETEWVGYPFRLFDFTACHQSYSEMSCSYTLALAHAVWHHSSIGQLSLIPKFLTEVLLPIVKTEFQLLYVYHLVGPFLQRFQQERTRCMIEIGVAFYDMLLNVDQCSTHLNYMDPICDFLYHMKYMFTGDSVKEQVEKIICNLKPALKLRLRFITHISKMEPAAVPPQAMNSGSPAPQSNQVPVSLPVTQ

For another experiment, the target named is Med1 (human, UniProt Q15648 1-1581).
In another experiment the target is Med14 (human, UniProt O60244 1-1454).
In experiment [1] the target is RPB1, the largest subunit of RNA polymerase II (human, UniProt P24928 1-1970).

Med1, sequence (Q15648 whole entry): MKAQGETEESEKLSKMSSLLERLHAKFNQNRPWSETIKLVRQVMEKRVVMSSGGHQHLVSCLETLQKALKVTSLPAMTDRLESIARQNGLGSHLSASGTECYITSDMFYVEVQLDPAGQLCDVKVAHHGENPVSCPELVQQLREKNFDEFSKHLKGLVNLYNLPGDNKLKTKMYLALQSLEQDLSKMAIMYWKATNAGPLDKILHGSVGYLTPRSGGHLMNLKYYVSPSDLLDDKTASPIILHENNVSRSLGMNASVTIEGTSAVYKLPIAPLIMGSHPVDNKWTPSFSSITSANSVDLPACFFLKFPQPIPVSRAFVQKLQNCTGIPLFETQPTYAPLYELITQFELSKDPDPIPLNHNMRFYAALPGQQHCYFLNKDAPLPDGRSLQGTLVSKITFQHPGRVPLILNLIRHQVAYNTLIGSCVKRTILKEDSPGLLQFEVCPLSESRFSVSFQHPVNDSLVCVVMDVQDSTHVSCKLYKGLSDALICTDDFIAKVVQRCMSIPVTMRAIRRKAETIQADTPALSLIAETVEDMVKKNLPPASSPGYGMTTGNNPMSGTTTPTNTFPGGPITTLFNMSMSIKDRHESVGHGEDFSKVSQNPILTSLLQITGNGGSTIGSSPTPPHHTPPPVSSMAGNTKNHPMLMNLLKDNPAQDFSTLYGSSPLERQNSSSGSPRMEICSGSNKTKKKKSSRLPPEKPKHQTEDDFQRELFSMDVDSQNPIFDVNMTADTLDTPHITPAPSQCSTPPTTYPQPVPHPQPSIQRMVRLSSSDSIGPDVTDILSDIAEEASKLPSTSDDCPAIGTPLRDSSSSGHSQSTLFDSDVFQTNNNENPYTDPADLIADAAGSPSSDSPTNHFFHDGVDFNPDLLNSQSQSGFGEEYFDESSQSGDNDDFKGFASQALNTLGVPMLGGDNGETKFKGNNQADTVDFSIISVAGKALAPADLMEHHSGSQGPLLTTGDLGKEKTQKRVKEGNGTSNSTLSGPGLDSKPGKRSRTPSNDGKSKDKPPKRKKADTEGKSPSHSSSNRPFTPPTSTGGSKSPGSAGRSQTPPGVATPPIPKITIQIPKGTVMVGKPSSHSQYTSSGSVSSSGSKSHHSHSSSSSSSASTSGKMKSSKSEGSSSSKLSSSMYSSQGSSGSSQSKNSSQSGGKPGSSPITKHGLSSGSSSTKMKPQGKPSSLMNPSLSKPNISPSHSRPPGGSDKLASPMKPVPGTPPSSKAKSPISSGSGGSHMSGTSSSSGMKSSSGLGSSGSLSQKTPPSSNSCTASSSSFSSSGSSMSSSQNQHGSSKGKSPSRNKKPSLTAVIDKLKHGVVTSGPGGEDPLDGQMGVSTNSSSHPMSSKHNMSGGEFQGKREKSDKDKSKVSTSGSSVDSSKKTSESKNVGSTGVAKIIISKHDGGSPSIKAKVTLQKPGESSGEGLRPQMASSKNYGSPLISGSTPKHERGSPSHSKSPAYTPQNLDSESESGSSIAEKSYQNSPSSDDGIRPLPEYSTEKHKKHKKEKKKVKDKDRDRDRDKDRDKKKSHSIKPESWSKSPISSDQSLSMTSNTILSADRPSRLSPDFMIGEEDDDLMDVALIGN
Med14, sequence (O60244 whole entry): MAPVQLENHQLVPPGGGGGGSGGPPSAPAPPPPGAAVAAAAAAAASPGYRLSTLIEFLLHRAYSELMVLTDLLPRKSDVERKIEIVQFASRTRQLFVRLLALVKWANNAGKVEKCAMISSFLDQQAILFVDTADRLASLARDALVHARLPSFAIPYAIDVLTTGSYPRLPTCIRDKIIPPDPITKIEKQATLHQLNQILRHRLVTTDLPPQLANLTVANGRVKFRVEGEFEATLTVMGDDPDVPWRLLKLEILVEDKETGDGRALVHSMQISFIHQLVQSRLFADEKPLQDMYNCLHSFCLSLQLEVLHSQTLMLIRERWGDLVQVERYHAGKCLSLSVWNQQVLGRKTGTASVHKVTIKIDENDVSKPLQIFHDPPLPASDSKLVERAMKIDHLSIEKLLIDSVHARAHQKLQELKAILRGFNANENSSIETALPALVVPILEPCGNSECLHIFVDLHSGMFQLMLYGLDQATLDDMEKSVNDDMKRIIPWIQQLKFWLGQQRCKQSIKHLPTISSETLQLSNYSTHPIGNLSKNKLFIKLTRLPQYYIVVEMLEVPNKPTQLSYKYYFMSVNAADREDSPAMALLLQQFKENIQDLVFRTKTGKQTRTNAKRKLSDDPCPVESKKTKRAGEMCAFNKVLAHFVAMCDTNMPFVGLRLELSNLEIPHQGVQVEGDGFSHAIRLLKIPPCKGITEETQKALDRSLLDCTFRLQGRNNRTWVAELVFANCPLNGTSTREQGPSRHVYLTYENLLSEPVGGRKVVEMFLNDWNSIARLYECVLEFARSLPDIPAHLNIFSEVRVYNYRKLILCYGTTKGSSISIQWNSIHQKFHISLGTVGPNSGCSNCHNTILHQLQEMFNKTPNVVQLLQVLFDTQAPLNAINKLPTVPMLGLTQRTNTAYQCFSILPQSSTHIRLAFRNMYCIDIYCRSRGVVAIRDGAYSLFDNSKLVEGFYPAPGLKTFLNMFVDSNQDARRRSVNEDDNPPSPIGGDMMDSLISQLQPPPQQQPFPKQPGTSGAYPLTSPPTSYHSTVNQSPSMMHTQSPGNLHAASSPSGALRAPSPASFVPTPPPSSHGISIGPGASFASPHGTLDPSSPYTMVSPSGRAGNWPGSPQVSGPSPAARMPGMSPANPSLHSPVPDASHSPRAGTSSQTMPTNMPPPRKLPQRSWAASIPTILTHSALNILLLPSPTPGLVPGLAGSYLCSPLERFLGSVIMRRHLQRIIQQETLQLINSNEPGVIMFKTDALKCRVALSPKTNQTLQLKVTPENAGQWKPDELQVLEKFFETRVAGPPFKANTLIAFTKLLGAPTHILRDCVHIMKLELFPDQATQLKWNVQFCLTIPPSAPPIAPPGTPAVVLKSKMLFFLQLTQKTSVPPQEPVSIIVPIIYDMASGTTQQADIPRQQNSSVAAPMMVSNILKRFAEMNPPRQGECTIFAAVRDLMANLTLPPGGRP

B1: Med25 (natural protein, human)
chain: MVPGSEGPARAGSVVADVVFVIEGTANLGPYFEGLRKHYLLPAIEYFNGGPPAETDFGGDYGGTQYSLVVFNTVDCAPESYVQCHAPTSSAYEFVTWLDGIKFMGGGGESCSLIAEGLSTALQLFDDFKKMREQIGQTHRVCLLICNSPPYLLPAVESTTYSGCTTENLVQQIGERGIHFSIVSPRKLPALRLLFEKAAPPALLEPLQPPTDVSQDPRHMVLVRGLVLPVGGGSAPGPLQSKQPVPLPPAAPSGATLSAAPQQPLPPVPPQYQVPGNLSAAQVAAQNAVEAAKNQKAGLGPRFSPITPLQQAAPGVGPPFSQAPAPQLPPGPPGAPKPPPASQPSLVSTVAPGSGLAPTAQPGAPSMAGTVAPGGVSGPSPAQLGAPALGGQQSVSNKLLAWSGVLEWQEKPKPASVDANTKLTRSLPCQVYVNHGENLKTEQWPQKLIMQLIPQQLLTTLGPLFRNSRMVQFHFTNKDLESLKGLYRIMGNGFAGCVHFPHTAPCEVRVLMLLYSSKKKIFMGLIPYDQSGFVNGIRQVITNHKQVQQQKLEQQQRGMGGQQAPPGLGPILEDQARPSQNLLQLRPPQPQPQGTVGASGATGQPQPQGTAQPPPGAPQGPPGAASGPPPPGPILRPQNPGANPQLRSLLLNPPPPQTGVPPPQASLHHLQPPGAPALLPPPHQGLGQPQLGPPLLHPPPAQSWPAQLPPRAPLPGQMLLSGGPRGPVPQPGLQPSVMEDDILMDLI
Turning to B1, the binding result with Med23 is listed as “binds”.

B2: Med4 (natural protein, human)
chain: MAASSSGEKEKERLGGGLGVAGGNSTRERLLSALEDLEVLSRELIEMLAISRNQKLLQAGEENQVLELLIHRDGEFQELMKLALNQGKIHHEMQVLEKEVEKRDSDIQQLQKQLKEAEQILATAVYQAKEKLKSIEKARKGAISSEEIIKYAHRISASNAVCAPLTWVPGDPRRPYPTDLEMRSGLLGQMNNPSTNGVNGHLPGDALAAGRLPDVLAPQYPWQSNDMSMNMLPPNHSSDFLLEPPGHNKENEDDVEIMSTDSSSSSSESD
As to B2, the binding result in the experiment with Med1 was “binds”.

B3: Med17 (natural protein, human)
chain: MSGVRAVRISIESACEKQVHEVGLDGTETYLPPLSMSQNLARLAQRIDFSQGSGSEEEEAAGTEGDAQEWPGAGSSADQDDEEGVVKFQPSLWPWDSVRNNLRSALTEMCVLYDVLSIVRDKKFMTLDPVSQDALPPKQNPQTLQLISKKKSLAGAAQILLKGAERLTKSVTENQENKLQRDFNSELLRLRQHWKLRKVGDKILGDLSYRSAGSLFPHHGTFEVIKNTDLDLDKKIPEDYCPLDVQIPSDLEGSAYIKVSIQKQAPDIGDLGTVNLFKRPLPKSKPGSPHWQTKLEAAQNVLLCKEIFAQLSREAVQIKSQVPHIVVKNQIISQPFPSLQLSISLCHSSNDKKSQKFATEKQCPEDHLYVLEHNLHLLIREFHKQTLSSIMMPHPASAPFGHKRMRLSGPQAFDKNEINSLQSSEGLLEKIIKQAKHIFLRSRAAATIDSLASRIEDPQIQAHWSNINDVYESSVKVLITSQGYEQICKSIQLQLNIGVEQIRVVHRDGRVITLSYQEQELQDFLLSQMSQHQVHAVQQLAKVMGWQVLSFSNHVGLGPIESIGNASAITVASPSGDYAISVRNGPESGSKIMVQFPRNQCKDLPKSDVLQDNKWSHLRGPFKEVQWNKMEGRNFVYKMELLMSALSPCLL
As for B3, the binding result with Med14 is “binds”.

B4: Med31 (natural protein)
chain: MAAAVAMETDDAGNRLRFQLELEFVQCLANPNYLNFLAQRGYFKDKAFVNYLKYLLYWKDPEYAKYLKYPQCLHMLELLQYEHFRKELVNAQCAKFIDEQQILHWQHYSRKRMRLQQALAEQQQQNNTSGK
B4: the binding result in experiment [1] is “binds”.

B5: Med24 (natural protein, human)
chain: MKVVNLKQAILQAWKERWSDYQWAINMKKFFPKGATWDILNLADALLEQAMIGPSPNPLILSYLKYAISSQMVSYSSVLTAISKFDDFSRDLCVQALLDIMDMFCDRLSCHGKAEECIGLCRALLSALHWLLRCTAASAERLREGLEAGTPAAGEKQLAMCLQRLEKTLSSTKNRALLHIAKLEEASSWTAIEHSLLKLGEILANLSNPQLRSQAEQCGTLIRSIPTMLSVHAEQMHKTGFPTVHAVILLEGTMNLTGETQSLVEQLTMVKRMQHIPTPLFVLEIWKACFVGLIESPEGTEELKWTAFTFLKIPQVLVKLKKYSHGDKDFTEDVNCAFEFLLKLTPLLDKADQRCNCDCTNFLLQECGKQGLLSEASVNNLMAKRKADREHAPQQKSGENANIQPNIQLILRAEPTVTNILKTMDADHSKSPEGLLGVLGHMLSGKSLDLLLAAAAATGKLKSFARKFINLNEFTTYGSEESTKPASVRALLFDISFLMLCHVAQTYGSEVILSESRTGAEVPFFETWMQTCMPEEGKILNPDHPCFRPDSTKVESLVALLNNSSEMKLVQMKWHEACLSISAAILEILNAWENGVLAFESIQKITDNIKGKVCSLAVCAVAWLVAHVRMLGLDEREKSLQMIRQLAGPLFSENTLQFYNERVVIMNSILERMCADVLQQTATQIKFPSTGVDTMPYWNLLPPKRPIKEVLTDIFAKVLEKGWVDSRSIHIFDTLLHMGGVYWFCNNLIKELLKETRKEHTLRAVELLYSIFCLDMQQVTLVLLGHILPGLLTDSSKWHSLMDPPGTALAKLAVWCALSSYSSHKGQASTRQKKRHREDIEDYISLFPLDDVQPSKLMRLLSSNEDDANILSSPTDRSMSSSLSASQLHTVNMRDPLNRVLANLFLLISSILGSRTAGPHTQFVQWFMEECVDCLEQGGRGSVLQFMPFTTVSELVKVSAMSSPKVVLAITDLSLPLGRQVAAKAIAAL
In the case of B5, the binding result in the experiment with Med1 was “binds”.

B6: Med9 (natural protein, human)
chain: MASAGVAAGRQAEDVLPPTSDQPLPDTKPLPPPQPPPVPAPQPQQSPAPRPQSPARAREEENYSFLPLVHNIIKCMDKDSPEVHQDLNALKSKFQEMRKLISTMPGIHLSPEQQQQQLQSLREQVRTKNELLQKYKSLCMFEIPKE
As to B6, in the experiment with Med1, the binding result is “binds”.
